# Patent US20040029198A1, “Method of analyzing ataxia-telangiectasia protein” (priority 2002, published 2004)
# Assays:
# [1] = Stability of ATM in isolated PBMC samples stored at different temperatures, measured by sandwich immunoassay; format: physicochemical; conditions: for amount of ATM: in ng/mL (unit assumed)
# Procedure: The following is a sandwich immunoassay which was performed to measure ATM protein in nuclear cell lysates and cell extracts from cell lines and peripheral blood mononuclear cells taken from normal individuals and A-T patients.
# Wells of a 96-well flat bottom plate were incubated with two purified commercially available anti-ATM mouse monoclonal antibodies (ATM-2C1, GeneTex, Inc, San Antonio, Tex.; Ab-8, NeoMarkers, Fremont, Calif.) at 5 μg/ml in phosphate-buffered saline, pH 7.4 for 6 hours. After extensive washing and blocking of the wells for one hour with a solution of 3% bovine serum albumin in phosphate buffered saline containing 0.1% Tween-20, standard concentrations of purified ATM protein and nuclear cell lysates or cell extracts (see below) were added to the wells for an overnight incubation at room temperature.
# After extensive washing, a rabbit anti-ATM antiserum at a 400× dilution was added to each of the wells and incubated for 3 hours at room temperature. The antiserum came from Novus Biologicals (NB 100-104, Littleton, Colo.). After washing and blocking, an HRP-conjugated goat anti-rabbit IgG antiserum at a 1:6000 dilution was added to each well and incubated for 3 hours at room temperature. The conjugate came from Jackson ImmunoResearch Laboratories (211-035-109, West Grove, Pa.).
# The plate was then washed and Pierce ImmunoPure tetramethylbenzidine (TMB) substrate (34021, Rockford, Ill.) was added to each well. After color development, the reaction was stopped with 1M sulfuric acid and the color intensity was measured spectrophometrically at 450 nm. A concentration curve was generated based on signals generated for the purified ATM protein and concentrations of unknown samples were read off the standard curve.
# Nuclear lysates were prepared from lymphoblastoid cell lines (EBV-infected) derived from A-T patients and healthy donors using commercially available extraction reagents and procedures (78833, Pierce, Rockford, Ill.). Whole cell extracts were generated from peripheral blood mononuclear cells and lymphoblastoid cell lines by subjecting known numbers of resuspended cells to ultrasonic energy at a 20 kHz frequency generated by a Fisher Sonic Dismembrator (model 550). The disrupted cell product was then added directly to wells of the microtiter plate without any additional manipulations.
# (§1) It has been observed that ATM protein is unstable in whole blood. […] It is therefore preferable that ATM proteins be isolated and measured shortly after extracting the cells from a patient to obtain the most reliable data. […] Table 2 compares the amount of ATM in two such samples stored at −5° C. and −70° C.
# [2] = Stability of ATM protein in whole blood; format: physicochemical; conditions: FIG. 3
# Procedure: as §1
substance,measurement,setting,value
"ATM: 370 kDa protein kinase known as ""ataxia-telangiectasia, mutated"" (ATM), encoded by the A-T gene",stability of ATM levels in a sample,"[1]; PBMCs isolated from fresh blood, stored at −70° C. for 6 weeks",relatively stable
same,amount of ATM,"[1]; stored at −5° C., week 0, 3 readings",444 ± 22
same,amount of ATM,"[1]; stored at −5° C., week 1, 3 readings",126 ± 8
same,amount of ATM,"[1]; stored at −5° C., week 2, 3 readings",115 ± 14
same,amount of ATM,"[1]; stored at −5° C., week 3, 3 readings",66 ± 17
same,amount of ATM,"[1]; stored at −5° C., week 4, 3 readings",50 ± 10
same,amount of ATM,"[1]; stored at −5° C., week 6, 3 readings",32 ± 2
same,amount of ATM,"[1]; stored at −70° C., week 0, 3 readings",444 ± 22
same,amount of ATM,"[1]; stored at −70° C., week 1, 3 readings",458 ± 11
same,amount of ATM,"[1]; stored at −70° C., week 2, 3 readings",512 ± 63
same,amount of ATM,"[1]; stored at −70° C., week 3, 3 readings",424 ± 34
same,amount of ATM,"[1]; stored at −70° C., week 4, 3 readings",439 ± 79
same,amount of ATM,"[1]; stored at −70° C., week 6, 3 readings",458 ± 69
same,stability in whole blood,[2],unstable
